Where two headings read alike, the source gives them in different places.
T1: recombinant purified human IL-12 p70 (human, UniProt P29459 23-219)
T1 construct: Disulfide-linked heterodimer of p35 and p40; also called hIL-12; Hu IL-12
T1 sequence 1: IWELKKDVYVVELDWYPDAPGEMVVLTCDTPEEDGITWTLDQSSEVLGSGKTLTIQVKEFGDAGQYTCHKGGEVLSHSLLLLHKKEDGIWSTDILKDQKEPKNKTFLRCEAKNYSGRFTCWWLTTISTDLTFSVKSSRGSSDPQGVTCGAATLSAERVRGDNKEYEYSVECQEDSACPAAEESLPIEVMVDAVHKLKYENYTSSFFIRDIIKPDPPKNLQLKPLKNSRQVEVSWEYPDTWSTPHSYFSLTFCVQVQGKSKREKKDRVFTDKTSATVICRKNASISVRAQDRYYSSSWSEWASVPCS
T1 sequence 2: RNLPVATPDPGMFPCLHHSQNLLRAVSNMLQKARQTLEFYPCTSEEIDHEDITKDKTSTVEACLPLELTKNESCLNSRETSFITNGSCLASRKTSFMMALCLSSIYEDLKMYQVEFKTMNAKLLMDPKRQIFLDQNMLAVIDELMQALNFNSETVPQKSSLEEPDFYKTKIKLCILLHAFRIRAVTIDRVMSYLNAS


Legend:
[1] = target: T1, recombinant purified human IL-12 p70; assay: SPR (BIAcore) as in Example 1.1.B, human IL-12p70
Experimental: Approximately 5000 RU of goat anti-mouse IgG, (Fcγ), fragment specific polyclonal antibody (Pierce Biotechnology Inc, Rockford, Ill.) diluted in 10 mM sodium acetate (pH 4.5) was directly immobilized across a CM5 research grade biosensor chip using a standard amine coupling kit according to manufacturer's instructions and procedures at 25 μg/ml. Unreacted moieties on the biosensor surface were blocked with ethanolamine. Modified carboxymethyl dextran surface in flowcell 2 and 4 was used as a reaction surface. Unmodified carboxymethyl dextran without goat anti-mouse IgG in flow cell 1 and 3 was used as the reference surface. For kinetic analysis, rate equations derived from the 1:1 Langmuir binding model were fitted simultaneously to association and dissociation phases of all eight injections (using global fit analysis) with the use of Biaevaluation 4.0.1 software. Purified antibodies were diluted in HEPES-buffered saline for capture across goat anti-mouse IgG specific reaction surfaces. Mouse antibodies to be captured as a ligand (25 μg/ml) were injected over reaction matrices at a flow rate of 5 μl/min. The association and dissociation rate constants, kₒₙ (unit M⁻¹ s⁻¹) and koff (unit s⁻¹) were determined under a continuous flow rate of 25 μl/min. Rate constants were derived by making kinetic binding measurements at ten different antigen concentrations ranging from 10-200 nM. The equilibrium dissociation constant (unit M) of the reaction between mouse antibodies and recombinant purified human IL-12 p70 or recombinant purified human IL-12 p40 was then calculated from the kinetic rate constants by the following formula: KD=koff/kₒₙ. Binding is recorded as a function of time and kinetic rate constants are calculated. In this assay, on-rates as fast as 10⁶M⁻¹ s⁻¹ and off-rates as slow as 10⁻⁶ can be measured. […]

[2] = target: T1, recombinant purified human IL-12 p70; assay: cell-based or functional assay
[3] = target: T1, recombinant purified human IL-12 p70; assay: cell-based or functional assay; remark: listed apart in the source
[4] = target: T1, recombinant purified human IL-12 p70; assay: SPR (Biacore) according to Example 1.1.B
Experimental: The BIACORE assay (Biacore, Inc, Piscataway, N.J.) determines the affinity of antibodies with kinetic measurements of on-, off-rate constants. Binding of antibodies to recombinant purified human IL-12 p70 or recombinant purified human IL-12 p40 were determined by surface plasmon resonance-based measurements with a Biacore® 3000 instrument (Biacore® AB, Uppsala, Sweden) using running HBS-EP (10 mM HEPES [pH 7.4], 150 mM NaCl, 3 mM EDTA, and 0.005% surfactant P20) at 25° C. All chemicals were obtained from Biacore® AB (Uppsala, Sweden) or otherwise from a different source as described in the text. Approximately 5000 RU of goat anti-mouse IgG, (Fcγ), fragment specific polyclonal antibody (Pierce Biotechnology Inc, Rockford, Ill.) diluted in 10 mM sodium acetate (pH 4.5) was directly immobilized across a CM5 research grade biosensor chip using a standard amine coupling kit according to manufacturer's instructions and procedures at 25 μg/ml. Unreacted moieties on the biosensor surface were blocked with ethanolamine. Modified carboxymethyl dextran surface in flowcell 2 and 4 was used as a reaction surface. Unmodified carboxymethyl dextran without goat anti-mouse IgG in flow cell 1 and 3 was used as the reference surface. For kinetic analysis, rate equations derived from the 1:1 Langmuir binding model were fitted simultaneously to association and dissociation phases of all eight injections (using global fit analysis) with the use of Biaevaluation 4.0.1 software. Purified antibodies were diluted in HEPES-buffered saline for capture across goat anti-mouse IgG specific reaction surfaces. Mouse antibodies to be captured as a ligand (25 μg/ml) were injected over reaction matrices at a flow rate of 5 μl/min. The association and dissociation rate constants, kₒₙ (unit M⁻¹ s⁻¹) and koff (unit s⁻¹) were determined under a continuous flow rate of 25 μl/min. Rate constants were derived by making kinetic binding measurements at ten different antigen concentrations ranging from 10-200 nM. The equilibrium dissociation constant (unit M) of the reaction between mouse antibodies and recombinant purified human IL-12 p70 or recombinant purified human IL-12 p40 was then calculated from the kinetic rate constants by the following formula: KD=koff/kₒₙ. Binding is recorded as a function of time and kinetic rate constants are calculated.

[5] = target: T1, recombinant purified human IL-12 p70; assay: competition ELISA on coated human IL-12, competitor of 0.8 µg/ml biotinylated 8E1, Expt. 3
Experimental: MaxiSorp ELISA plates (Nalge Nunc International) were coated overnight at 4° C. with 100 μl/well of 1.0 μg/ml human IL-12 in 0.2 M sodium carbonate-bicarbonate buffer, pH 9.4, washed with Wash Buffer (PBS containing 0.1% Tween 20), and blocked for 1 hr at room temperature with 300 μl/well of SuperBlock Blocking Buffer in TBS (Pierce Chemical Company). […] As isotype controls, 100 μl/well of 100 μg/ml mouse IgG 1/κ (MuFd79) or humanized IgG1/κ (HuFd79) monoclonal antibodies in ELISA buffer was used. As a no-competitor control, 100 μl/well of ELISA Buffer was used. After incubating the plates for 1 hr at room temperature, and washing with Wash Buffer, bound antibodies were detected using 100 μl/well of 1 μg/ml HRP-conjugated streptavidin (Pierce Chemical Company) in ELISA buffer. After incubating for 1 hr at room temperature, and washing with Wash Buffer, color development was performed by adding 100 μl/well of ABTS Peroxidase Substrate/Peroxidase Solution B (KPL, Inc.). After incubating for 5 min at room temperature, color development was stopped by adding 50 μl/well of 2% oxalic acid. Absorbance was read at 415 nm.
The affinity of 8E1.4, 8E1.5 and 8E1.6 to human IL-12 was analyzed by competition ELISA as described above.

Row | Binder | Kd [1] | koff [1] | kon [1] | Av. IC50 (nM) huIL-12, PHA blast assay [2] | Av. IC50 (nM) huIL-12, PHA blast assay [3] | Kd [4] | koff [4] | kon [4] | IC50 [5]
1 | anti-IL-12p40 humanized antibody 3G7.3 (antibody, human IgG1, kappa, L234A L235A, V domains shown, Back-mutated CDR-grafted antibody; COS cells) VH: EVQLVQSGAEVKKPGASVKVSCKATGYTFNDYWIEWVRQAPGQGLEWMGGFSHGSGSTNYNEKFKGRVTMTADSSTNTAYMELRSLRSDDTAVYYCARRRFRGMDYWGQGTTVTVSS VL: EIVMTQSPATLSVSPGERATLSCKASQSVSNDVAWYQQKPGQAPRLLIYYASNRYTGVPDRFSGSGSGTEFTLTISSLQSEDFAVYYCQQDYSSPWSFGGGTKVEIKR | 0.2 nM | 0.00015 s⁻¹ | 780000 M⁻¹ s⁻¹ | 0.42 nM |  |  |  |  | 
2 | additional humanized anti-IL-12 antibody 1A6.10 (antibody, human IgG1, V domains shown, Only variable domains tied to it) VH: EVTLRESGPGLVKPTQTLTLTCTLYGFSLSTSGMGVSWIRQPPGKGLEWLAHIWWDGDNYYNPSLKSQLTISKDTSKNQVVLKLTSVDPVDTATYYCARRTRVNYAMDYWGQGTLVTVSS VL: DIQMTQSPSSLSASVGDRVTITCKASQSVSNDVAWYQQKPGKAPKLLIYYASNRYTGVPDRFSGSGYGTDFTFTISSLQPEDIATYYCQQDYNSPWTFGGGTKVEIKR |  |  |  |  | 0.15 nM | 0.024 nM | 7.6e-06 s⁻¹ | 320000 M⁻¹ s⁻¹ | 
3 | additional humanized anti-IL-12 antibody 1A6.12 (antibody, human IgG1, V domains shown, Only variable domains tied to it) VH: EVTLRESGPGLVKPTQTLTLTCTLYGFSLSTSGMGVSWIRQPPGKGLEWLAHIWWDGDNYYNPSLKSQLTISKDTSKNQVVLKLTSVDPVDTATYYCARRTRVNYAMDYWGQGTLVTVSS VL: DIQMTQSPSSLSASVGDRVTITCKASQSVSNDVAWFQQKPGKAPKLLIYYASNRYTGVPDRFSGSGYGTDFTFTISSLQPEDIATYYCQQDYNSPWTFGGGTKVEIKR |  |  |  |  | 0.088 nM | 0.4 nM | 0.0003 s⁻¹ | 740000 M⁻¹ s⁻¹ | 
4 | anti-IL-12p40 humanized antibody 8E1.3 (antibody, human IgG1, kappa, L234A L235A, V domains shown, Back-mutated CDR-grafted antibody; COS cells) VH: EVKLVESGGGLVQPGGSLRLSCAASGFTFSDYGMVWVRQAPGKGLEWVASISSGSSNIYYADTVKGRFTISRDDSKNTLYLQMNSLKTEDTAVYYCARNPYWGQGTTVTVSS VL: DIVMTQSPSSLSASVGDRVTITCKASQNVGTNVAWYQQKPEKAPKSLIYSASHRYSGVPSRFSGSGSGTDFTLTISSLQPEDFATYYCQQYNSYPLTFGGGTKVEIKR | 0.76 nM | 0.001 s⁻¹ | 1.3e+06 M⁻¹ s⁻¹ | 10 nM |  |  |  |  | 
5 | additional humanized anti-IL-12 antibody 8E1.4 (antibody, IgG1, V domains shown, IgG1/kappa) VH: EVQLVESGGGLVQPGGSLRLSCAASGFTFSDYGMVWVRQAPGKGLEWVASISSGSSNIYYADTVKGRFTISRDNAKNTLYLQMNSLRAEDTAVYYCARNPYWGQGTLVTVSS VL: DIQMTQSPSSLSASVGDRVTITCKASQNVGTNVAWYQQKPGKAPKGLIYSASHRYSGVPSRFSGSGSGTDFTLTISSLQPEDFATYYCQQYNSYPLTFGGGTKVEIKR |  |  |  |  | 12 nM | 1.3 nM | 0.001 s⁻¹ | 800000 M⁻¹ s⁻¹ | 8.33 µg/mL
6 | additional humanized anti-IL-12 antibody 8E1.5 (antibody, IgG1, V domains shown, IgG1/kappa) VH: EVQLVESGGGLVQPGGSLRLSCAASGFTFSDYGMVWVRQAPGKGLEWVASISSGSSNIYYADTVKGRFTISRDNAKNTLYLQMNSLRAEDTAVYYCARNPYWGQGTLVTVSS VL: DIQMTQSPSSLSASVGDRVTITCKASQNVGTNVAWYQQKPGKAPKGLIYSASHRYSGVPDRFSGSGSGTDFTLTISSLQPEDFATYYCQQYNSYPLTFGGGTKVEIKR |  |  |  |  | 8 nM | 0.75 nM | 0.00124 s⁻¹ | 1.6e+06 M⁻¹ s⁻¹ | 13.4 µg/mL
7 | anti-IL-12p40 humanized antibody 1D4.6 (antibody, human IgG1, kappa, L234A L235A, V domains shown, COS cells) VH: EVTLRESGPALVKPTQTLTLTCTFSGFSLSKSVMGVSWIRQPPGKALEWLAHIYWDDDKYYNPSLKSRLTISKDTSKNQVVLTMTNMDPVDTATYYCTRRGIRSAMDYWGQGTTVTVSS VL: DVVMTQSPDSLAVSLGERATINCKASQSVSNDVAWYQQKPGQPPKLLIYYASNRYTGVPDRFSGSGYGTDFTLTISSLQAEDVAVYYCQQDYNSPWTFGGGTKVEIKR | < 0.01 nM | < 1e-05 s⁻¹ | 480000 M⁻¹ s⁻¹ | 0.15 nM |  |  |  |  | 
8 | anti-IL-12p40 humanized antibody 1D4.8 (antibody, human IgG1, kappa, L234A L235A, V domains shown, Back-mutated CDR-grafted antibody; COS cells) VH: EVTLRESGPALVKPTQTLTLTCTFSGFSLRKSVMGVSWIRQPPGKALEWLAHIYWDDDKYYNPSLKSRLTISKDTSKNQVVLTMTNMDPVDTATYYCTRRGIRSAMDYWGQGTTVTVSS VL: DIVMTQSPDSLAVSLGERATINCKASQSVSNDVAWYQQKPGQPPKLLIYYASNRYTGVPDRFSGSGSGTDFTLTISSLQAEDVAVYYCQQDYNSPWTFGGGTKVEIKR | < 0.01 nM | < 1e-05 s⁻¹ | 120000 M⁻¹ s⁻¹ | 0.095 nM |  |  |  |  | 
9 | anti-IL-12p40 humanized antibody 1A6.9 (antibody, human IgG1, kappa, L234A L235A, V domains shown, Back-mutated CDR-grafted antibody; COS cells) VH: EVTLRESGPALVKPTQTLTLTCTFSGFSLSTSGMGVSWIRQPPGKALEWLAHIWWDGDNYYNPSLKSRLTISKDTSKNQVVLTMTNMDPVDTATYYCARRTRVNYAMDYWGQGTTVTVSS VL: SVVMTQSPDSLAVSLGERATINCKASQSVSNDVAWFQQKPGQPPKLLIYYASNRYTGVPDRFSGSGYGTDFTLTISSLQAEDVAVYYCQQDYNSPWTFGGGTKVEIKR | < 0.01 nM | < 1e-05 s⁻¹ | 350000 M⁻¹ s⁻¹ | 0.15 nM |  |  |  |  | 
